Measurements: the supplement of paper PMC9112550, “Optimization of the antimicrobial peptide Bac7 by deep mutational scanning” (BMC Biology, 2022)

Test system: Escherichia coli TOP10
Assay: shrunken log2 fold change of peptide-encoding DNA abundance (4.5 h post-induction vs induction); higher = less antimicrobial activity (less host growth inhibition)
Conditions: time post-induction: 4.5 h; library: site-saturation at positions 5, 18, 19, 20
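Further: peptides expressed intracellularly from a pBAD plasmid library in pooled LB shake-flask culture, induced with 0.3% L-arabinose, DNA abundance read by NGS, three biological replicates, DESeq2 with apeglm shrinkage.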

Sequence | shrunken log2 fold change
RRIRQRPPRLPRPRPRPETGPRP | 0.0496
RRIRHRPPRLPRPRPRPRECPRP | 0.0559
RRIRIRPPRLPRPRPRPAIWPRP | 0.0492
RRIRARPPRLPRPRPRPLQMPRP | 0.629
RRIRRRPPRLPRPRPRPQAIPRP | -0.0149
RRIRPRPPRLPRPRPRPAMCPRP | -0.0389
RRIRWRPPRLPRPRPRPPVLPRP | 0.433
RRIRIRPPRLPRPRPRPDSNPRP | -0.168
RRIRTRPPRLPRPRPRPMAQPRP | 0.074
RRIRGRPPRLPRPRPRPKAGPRP | 1.17
RRIRYRPPRLPRPRPRPPDMPRP | -0.625
RRIRLRPPRLPRPRPRPDGFPRP | 0.052
RRIRWRPPRLPRPRPRPTKMPRP | 0.344
RRIRCRPPRLPRPRPRPQCYPRP | -0.474
RRIRHRPPRLPRPRPRPNPFPRP | -0.67
RRIRMRPPRLPRPRPRPGMVPRP | 0.263
RRIRSRPPRLPRPRPRPQIHPRP | -0.341
RRIRNRPPRLPRPRPRPEMDPRP | 0.294
RRIRQRPPRLPRPRPRPTKKPRP | -0.0835
RRIRCRPPRLPRPRPRPVHKPRP | 0.287
RRIRSRPPRLPRPRPRPCRFPRP | -0.0924
RRIRDRPPRLPRPRPRPPERPRP | 0.0665
RRIRHRPPRLPRPRPRPGPTPRP | 0.146
RRIRCRPPRLPRPRPRPPFPPRP | 0.302
RRIRIRPPRLPRPRPRPRALPRP | 0.0988

Sequence | shrunken log2 fold change
RRIRMRPPRLPRPRPRPENMPRP | 0.0343
RRIRCRPPRLPRPRPRPDESPRP | 0.153
RRIRGRPPRLPRPRPRPVDRPRP | 0.297
RRIRIRPPRLPRPRPRPYDRPRP | -0.499
RRIRQRPPRLPRPRPRPQCPPRP | -0.229
RRIRIRPPRLPRPRPRPSGWPRP | 0.037
RRIRCRPPRLPRPRPRPPRHPRP | 0.646
RRIRYRPPRLPRPRPRPANNPRP | -0.45
RRIRKRPPRLPRPRPRPYSTPRP | -0.0551
RRIRSRPPRLPRPRPRPCEFPRP | -0.227
RRIRVRPPRLPRPRPRPTGYPRP | -0.239
RRIRERPPRLPRPRPRPTKGPRP | -0.184
RRIRRRPPRLPRPRPRPLGVPRP | 0.238
RRIRRRPPRLPRPRPRPGPQPRP | 0.337
RRIRIRPPRLPRPRPRPQYEPRP | -0.184
RRIRSRPPRLPRPRPRPNMQPRP | -0.0719
RRIRTRPPRLPRPRPRPCKAPRP | -0.00146
RRIRKRPPRLPRPRPRPRLFPRP | 0.104
RRIRWRPPRLPRPRPRPCKAPRP | -0.0863
RRIRSRPPRLPRPRPRPHTMPRP | -0.163
RRIRTRPPRLPRPRPRPANAPRP | -0.0933
RRIRFRPPRLPRPRPRPCKNPRP | 0.0492
RRIRTRPPRLPRPRPRPQISPRP | -0.024
RRIRGRPPRLPRPRPRPNCDPRP | 0.382
RRIRPRPPRLPRPRPRPMKIPRP | 0.0483

Sequence | shrunken log2 fold change
RRIRLRPPRLPRPRPRPNESPRP | -0.00771
RRIRERPPRLPRPRPRPTKRPRP | -0.176
RRIRSRPPRLPRPRPRPLWTPRP | 0.0886
RRIRRRPPRLPRPRPRPCCAPRP | 0.372
RRIRGRPPRLPRPRPRPCCKPRP | -0.108
RRIRQRPPRLPRPRPRPERDPRP | 0.321
RRIRDRPPRLPRPRPRPMMGPRP | 0.0397
RRIRKRPPRLPRPRPRPGCFPRP | 0.421
RRIRVRPPRLPRPRPRPRMNPRP | -0.0411
RRIRWRPPRLPRPRPRPERNPRP | -0.117
RRIRARPPRLPRPRPRPYCKPRP | -0.376
RRIRWRPPRLPRPRPRPVTWPRP | -0.017
RRIRLRPPRLPRPRPRPLDLPRP | -0.481
RRIRDRPPRLPRPRPRPHPYPRP | 0.0304
RRIRGRPPRLPRPRPRPQAMPRP | -0.0164
RRIRLRPPRLPRPRPRPPANPRP | 0.592
RRIRMRPPRLPRPRPRPIDQPRP | 0.0164
RRIRFRPPRLPRPRPRPQNDPRP | -0.296
RRIRQRPPRLPRPRPRPQNLPRP | -0.0271
RRIRKRPPRLPRPRPRPWYEPRP | -0.0672
RRIRNRPPRLPRPRPRPMTYPRP | -0.0655
RRIRCRPPRLPRPRPRPWQGPRP | -0.0944
RRIRDRPPRLPRPRPRPNKNPRP | -0.343
RRIRIRPPRLPRPRPRPRVIPRP | -0.209
RRIRFRPPRLPRPRPRPGHPPRP | -0.0866

Sequence | shrunken log2 fold change
RRIRYRPPRLPRPRPRPGRQPRP | -0.031
RRIRGRPPRLPRPRPRPFNLPRP | -0.643
RRIRTRPPRLPRPRPRPVPMPRP | -0.299
RRIRIRPPRLPRPRPRPGAWPRP | 0.215
RRIRNRPPRLPRPRPRPIEKPRP | -0.0498
RRIRVRPPRLPRPRPRPANSPRP | -0.117
RRIRHRPPRLPRPRPRPEKRPRP | -0.01
RRIRLRPPRLPRPRPRPAMFPRP | -0.0833
RRIRPRPPRLPRPRPRPEIMPRP | -0.0268
RRIRIRPPRLPRPRPRPFMPPRP | -0.821
RRIRMRPPRLPRPRPRPMTRPRP | 0.118
RRIRQRPPRLPRPRPRPLVKPRP | -0.166
RRIRMRPPRLPRPRPRPQMMPRP | 0.443
RRIRARPPRLPRPRPRPMCTPRP | -0.0696
RRIRCRPPRLPRPRPRPHFNPRP | -0.589
RRIRCRPPRLPRPRPRPWSYPRP | -0.441
RRIRLRPPRLPRPRPRPPDGPRP | 0.0617
RRIRARPPRLPRPRPRPCCSPRP | 0.0121
RRIRMRPPRLPRPRPRPLIQPRP | 0.00597
RRIRTRPPRLPRPRPRPDYIPRP | -0.323
RRIRFRPPRLPRPRPRPDHKPRP | -0.406
RRIRLRPPRLPRPRPRPHDCPRP | -0.0305
RRIRLRPPRLPRPRPRPWYAPRP | -0.171
RRIRCRPPRLPRPRPRPGLSPRP | -0.248
RRIRSRPPRLPRPRPRPDMEPRP | 0.0134

Sequence | shrunken log2 fold change
RRIRHRPPRLPRPRPRPSLHPRP | -0.652
RRIRYRPPRLPRPRPRPMRGPRP | 0.156
RRIRRRPPRLPRPRPRPWMKPRP | -0.196
RRIRVRPPRLPRPRPRPCKVPRP | 0.00272
RRIRDRPPRLPRPRPRPFDVPRP | 0.016
RRIRIRPPRLPRPRPRPPMGPRP | 0.0153
RRIRERPPRLPRPRPRPAPQPRP | 0.31
RRIRARPPRLPRPRPRPIYMPRP | -0.11
RRIRCRPPRLPRPRPRPCPHPRP | -0.235
RRIRARPPRLPRPRPRPCRPPRP | -0.153
RRIRGRPPRLPRPRPRPFPTPRP | 0.63
RRIRLRPPRLPRPRPRPVVVPRP | 1.45
RRIRKRPPRLPRPRPRPTWQPRP | 0.58
RRIRWRPPRLPRPRPRPNQMPRP | -0.0159
RRIRDRPPRLPRPRPRPHSAPRP | 0.0279
RRIRRRPPRLPRPRPRPSDPPRP | -0.00173
RRIRLRPPRLPRPRPRPWFAPRP | -0.112
RRIRCRPPRLPRPRPRPAPPPRP | 0.743
RRIRWRPPRLPRPRPRPDMWPRP | 0.228
RRIRQRPPRLPRPRPRPHVNPRP | 0.0398
RRIRLRPPRLPRPRPRPGRSPRP | 0.326
RRIRERPPRLPRPRPRPLKIPRP | -0.402
RRIRPRPPRLPRPRPRPYGIPRP | -0.533
RRIRPRPPRLPRPRPRPAMMPRP | -0.214
RRIRSRPPRLPRPRPRPAHEPRP | -0.074

Sequence | shrunken log2 fold change
RRIRIRPPRLPRPRPRPSHVPRP | -0.523
RRIRTRPPRLPRPRPRPRRLPRP | 0.172
RRIRWRPPRLPRPRPRPQKTPRP | 0.119
RRIRIRPPRLPRPRPRPEDYPRP | -0.0393
RRIRYRPPRLPRPRPRPRHTPRP | -0.108
RRIRVRPPRLPRPRPRPHYVPRP | 0.0323
RRIRIRPPRLPRPRPRPFAPPRP | 1.3
RRIRTRPPRLPRPRPRPAIRPRP | 0.00208
RRIRHRPPRLPRPRPRPMGNPRP | -0.0499
RRIRWRPPRLPRPRPRPNQDPRP | 0.0957
RRIRWRPPRLPRPRPRPNKPPRP | -0.0749
RRIRIRPPRLPRPRPRPSIRPRP | -0.212
RRIRFRPPRLPRPRPRPDKPPRP | 0.0269
RRIRNRPPRLPRPRPRPGFCPRP | 0.164
RRIRERPPRLPRPRPRPWCIPRP | -1.84
RRIRQRPPRLPRPRPRPNMRPRP | 0.121
RRIRDRPPRLPRPRPRPKNVPRP | -0.0304
RRIRNRPPRLPRPRPRPCFQPRP | 0.012
RRIRMRPPRLPRPRPRPCFMPRP | -0.136
RRIRTRPPRLPRPRPRPLWTPRP | -0.0962
RRIRKRPPRLPRPRPRPADVPRP | 0.127
RRIRKRPPRLPRPRPRPMSTPRP | 0.41
RRIRIRPPRLPRPRPRPESWPRP | 0.249
RRIRCRPPRLPRPRPRPHHSPRP | -0.201
RRIRGRPPRLPRPRPRPMAIPRP | 0.0503
